Experimental data from patent US20220194999A1 (published 2022).

T1: TP53 C141Y peptide on HLA-A*02:01 (human)
T1 peptide: KTYPVQLWV

T2: TP53 C141Y, mimic peptide TP53_C141Y8 peptide on HLA-A*02:01 (human)
T2 peptide: KMYPVQLWL

T3: PIK3CA G118D, mimic peptide PIK3CA_G118D5 peptide on HLA-A*02:01 (human)
T3 peptide: ILNREIDFV

T4: PIK3CA G118D peptide on HLA-A*02:01 (human)
T4 peptide: ILNREIDFA

B1: TCR of SEQ ID NOs 210 and 114 (TCR)
alpha TRAV8-4*01 TRAJ8*01 CDR3: CAVSDEDTGFQKLVF
beta TRBV12-3*01 TRBJ1-2*01 CDR3: CASSFSTCSANYGYTF
B2: TCR of SEQ ID NOs 120 and 114 (TCR)
alpha TRAV12-2*01 TRAJ15*01 CDR3: CAGLIGTALIF
beta TRBV12-3*01 TRBJ1-2*01 CDR3: CASSFSTCSANYGYTF

Experiments:
Test in all cases: multimer staining
[1] = molecular target: T1, TP53 C141Y peptide on HLA-A*02:01
[2] = molecular target: T2, TP53 C141Y, mimic peptide TP53_C141Y8 …
[3] = molecular target: T3, PIK3CA G118D, mimic peptide …
[4] = molecular target: T4, PIK3CA G118D peptide on HLA-A*02:01

| Binder | binding result [1] | binding result [2] | binding result [3] | binding result [4] |
| --- | --- | --- | --- | --- |
| B1 | recognises | recognises | – | – |
| B2 | – | – | recognises | recognises |
